Assay results from US12139520B2 (priority 2020, dated 2024).
Bridge positions count the residues as written; N and C are the ends. Square brackets hold non-standard residues; d marks the D form. Ends that are not written are not given here. Hyp = O=C(O)[C@@H]1C[C@@H](O)CN1

T1: hAMY3R (human, UniProt P30988)
T1 sequence 1: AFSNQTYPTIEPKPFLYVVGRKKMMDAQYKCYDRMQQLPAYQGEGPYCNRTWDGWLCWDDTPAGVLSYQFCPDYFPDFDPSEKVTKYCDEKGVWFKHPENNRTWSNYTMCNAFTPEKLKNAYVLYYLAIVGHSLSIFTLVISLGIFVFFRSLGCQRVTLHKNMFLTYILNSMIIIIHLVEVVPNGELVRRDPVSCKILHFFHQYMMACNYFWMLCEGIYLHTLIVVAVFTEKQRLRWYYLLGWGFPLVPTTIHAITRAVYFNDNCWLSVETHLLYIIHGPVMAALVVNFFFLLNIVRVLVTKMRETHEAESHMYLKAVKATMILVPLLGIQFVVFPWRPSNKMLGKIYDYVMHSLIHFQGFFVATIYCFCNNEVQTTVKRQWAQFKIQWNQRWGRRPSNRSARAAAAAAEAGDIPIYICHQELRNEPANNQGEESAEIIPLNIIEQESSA
T1 sequence 2: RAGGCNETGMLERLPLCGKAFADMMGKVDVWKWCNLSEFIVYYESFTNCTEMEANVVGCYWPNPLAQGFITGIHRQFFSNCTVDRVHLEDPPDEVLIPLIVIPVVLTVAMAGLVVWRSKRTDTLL


How the values were obtained:
[1] = target: hAM1R (human, UniProt Q16602); test: cell-based or functional assay
[2] = target: T1, hAMY3R; test: cell-based or functional assay

Row | Binder | hAM1R EC50 (cAMP) [1] [nM] | hAMY3R EC50 (cAMP) [2] [nM]
1 | GCRMGTCTVQRLAHQIYQFTNKDKDNVAPRSKISPQT[Hyp]-NH2 (disulfide 2-7 (inferred); ends not checked) [SEQ ID NO: 192] | > 5000 | 0.098
2 | GCRFGTCTVQRLAHQIYQFTDKDKDNVAPRSKVSPNG[Hyp]-NH2 (disulfide 2-7 (inferred); ends not checked) [SEQ ID NO: 175] | 2980 | 0.074
3 | GCRTGTCTVQRLAHQIYQFTDKDKDNVAPRTKISPNG[Hyp]-NH2 (disulfide 2-7 (inferred); ends not checked) [SEQ ID NO: 197] | 2980 | 0.12
4 | GCRTGTCTVQRLAHQIYQFTDKFKDNVAPRSKISPQTW [SEQ ID NO: 184] | 4500 | 0.09
5 | GCRFGTCTVQRLAHQIYQFTDKDKDNVAPRSKISPQT[Hyp]-NH2 (disulfide 2-7 (inferred); ends not checked) [SEQ ID NO: 168] | > 5000 | 0.062
6 | KCNFATCTVQRLAHQIYQFTDKDKDNVAPPTEVGSNGP [SEQ ID NO: 18] | 817 | 0.008
7 | GCRTGTCTVQRLAHQIYQFTDKDKDNVAPRTKISPQG[Hyp]-NH2 (disulfide 2-7 (inferred); ends not checked) [SEQ ID NO: 189] | 2980 | 0.096
8 | GCRTGTCTVQRLAHQIHQFTDKFKDNVAPRSKISPQT[Hyp]-NH2 (disulfide 2-7 (inferred); ends not checked) [SEQ ID NO: 193] | > 5000 | 0.099
9 | GCRTGTCTVQRLAHQIYQFTDKDKDNVAPRSNVSPNGY [SEQ ID NO: 172] | 2980 | 0.066
10 | GCRFGTCTVQRLAHQIYQFTDKDKDNVAPRSNISPQGY [SEQ ID NO: 182] | 100 | 0.085
11 | GCRTGTCTVQRLAHQIYQFTDKDKDNVAPRSNVSPQGY [SEQ ID NO: 183] | 2980 | 0.088
12 | GCRTGTCTVQRLAHQIYQFTDKDKDNVAPRSNVGPNGY [SEQ ID NO: 177] | 2980 | 0.077
13 | GCRFGTCTVQRLAHQIYQFTDKDKDNVAPRSKVSPQGY [SEQ ID NO: 174] | 133 | 0.071
14 | GCRTGTCTVQRLAHQIYQFTDKDKDNVAPRTKISPNGY [SEQ ID NO: 190] | 2980 | 0.097
15 | GCRTGTCTVQRLAHQIYQFTDKDKDNVAPRSNIGPQGY [SEQ ID NO: 191] | 2980 | 0.098
16 | GCRTGTCTVQRLAHQIYQFTDKDKDNVAPRTNISPNGY [SEQ ID NO: 188] | 47.6 | 0.094
17 | GCRTGTCTVQRLAHQIYQFTDKDKDNVAPRTNVSPQGY [SEQ ID NO: 176] | 2980 | 0.076
18 | KCRMGTCTVQRLAHQIYQFTDKDKDNVAPRSKISPQT[Hyp]-NH2 (disulfide 2-7 (inferred); ends not checked) [SEQ ID NO: 194] | 3530 | 0.112

Row | Binder | hAM1R EC50 (cAMP) [1] [nM] | hAMY3R EC50 (cAMP) [2] [nM]
19 | GCRTGTCTVQRLAHQIYQFTDKFKDNVAPRSKISPQY[Hyp]-NH2 (disulfide 2-7 (inferred); ends not checked) [SEQ ID NO: 186] | > 5000 | 0.091
20 | KCNTATCTVQRLAHQIYQTDKDKDNVAPPTNVGSNG[Hyp]-NH2 (disulfide 2-7 (inferred); ends not checked) [SEQ ID NO: 195] | > 5000 | 0.112
21 | KCNTATCTVQRLAHQIYFTDKDKDNVAPPTNVGSNG[Hyp]-NH2 (disulfide 2-7 (inferred); ends not checked) [SEQ ID NO: 181] | > 5000 | 0.082
22 | GCRTGTCTVQRLAHQIAQFTDKFKDNVAPRSKISPQT[Hyp]-NH2 (disulfide 2-7 (inferred); ends not checked) [SEQ ID NO: 196] | > 5000 | 0.114
23 | GCRIGTCTVQRLAHQIYQFTNKDKDNVAPRSKISPQT[Hyp]-NH2 (disulfide 2-7 (inferred); ends not checked) [SEQ ID NO: 198] | 3960 | 0.122
24 | KCNTATCATQRLANFLVHSSNNFGAILPSTKIGSNTY [SEQ ID NO: 180] | > 5000 | 0.082
25 | KCNTATCATQRLANFLVHSSNNFGAILPRTKVGSNGY [SEQ ID NO: 19] | > 5000 | 0.008
26 | GCRFGTCTVQRLAHQIYQFTDKDKDNVAPRSKISPQG[Hyp]-NH2 (disulfide 2-7 (inferred); ends not checked) [SEQ ID NO: 169] | 2980 | 0.063
27 | GCRTGTCTVQRLAHQIYQFTDKDKDNVAPRSKIGPQG[Hyp]-NH2 (disulfide 2-7 (inferred); ends not checked) [SEQ ID NO: 179] | 2980 | 0.082
28 | GCRWGTCTVQRLAHQIYQFTDKFKDNVAPRSKISPQT[Hyp]-NH2 (disulfide 2-7 (inferred); ends not checked) [SEQ ID NO: 171] | > 5000 | 0.064
29 | GCRTGTCTVQRLAHQIYQFTDKDKDNVAPRSKVGPQG[Hyp]-NH2 (disulfide 2-7 (inferred); ends not checked) [SEQ ID NO: 187] | 2980 | 0.093
30 | KCNTATCTVQRLAHQIYQFTDKDKDNVAPRTKVGSNG[Hyp]-NH2 (disulfide 2-7 (inferred); ends not checked) [SEQ ID NO: 20] | > 5000 | 0.008
31 | GCRTGTCTVQRLAHQIYQFTDKDKDNVAPRTNVSPQG[Hyp]-NH2 (disulfide 2-7 (inferred); ends not checked) [SEQ ID NO: 178] | 2980 | 0.08
32 | GCRFGTCTVQRLAHQIYQFTDKDKDNVAPRSKVSPQG[Hyp]-NH2 (disulfide 2-7 (inferred); ends not checked) [SEQ ID NO: 167] | 2980 | 0.056
33 | GCRTGTCTVQRLAHQIYQFTDKDKDNVAPRTNISPNG[Hyp]-NH2 (disulfide 2-7 (inferred); ends not checked) [SEQ ID NO: 170] | 2980 | 0.064
34 | GCRTGTCTVQRLAHQIYQFTDKDKDNVAPRSNVSPNG[Hyp]-NH2 (disulfide 2-7 (inferred); ends not checked) [SEQ ID NO: 166] | 2980 | 0.056
35 | GCRTGTCTVQRLAHQIYQFTDKFKDNVAPRSKISPQW[Hyp]-NH2 (disulfide 2-7 (inferred); ends not checked) [SEQ ID NO: 185] | > 5000 | 0.09
36 | GCRMGTCTVQRLAHQIYQFTDKFKDNVAPRSKISPQT[Hyp]-NH2 (disulfide 2-7 (inferred); ends not checked) [SEQ ID NO: 173] | > 5000 | 0.069
